The target of data set [1] is T1, S. aureus sortase A (S. aureus), Q2FV99.
T1 chain: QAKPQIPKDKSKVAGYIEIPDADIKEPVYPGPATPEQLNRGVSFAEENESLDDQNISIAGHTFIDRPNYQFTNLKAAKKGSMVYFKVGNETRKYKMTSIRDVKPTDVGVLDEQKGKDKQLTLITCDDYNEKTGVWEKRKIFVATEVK
In words: cell-based or functional assay.

Data set [2] deals with HCV protease (hepatitis C virus). In words: cell-based or functional assay.
The target is the same in data set [3]. In words: apparent binding affinity; method not described.
The target in a further data set is T2, [Cu-GGH]^1-.
T2 chain: GGH

The target of another data set is T3, Cu-GGH-lisinopril.
T3 chain: GGH

A further data set has as its target T4, Ni-GGH-lisinopril (not fully specified).
T4 chain: GGH

In another data set the target is T5, Co-GGH-lisinopril.
T5 chain: GGH

The target in data set [4] is HCV protease (hepatitis C virus). In words: binding/inhibition curve of FIG. 1 (left); method not described.

Where no end group is shown, it is not given here. [ ]: non-standard residue; d: D form. Cha = N[C@@H](CC1CCCCC1)C(=O)O

Usually kinact stands for the rate constant of inactivation at saturating inhibitor. Broadly, the Ki is the equilibrium dissociation constant of an inhibitor or competing ligand from its target. A lower Ki goes with tighter binding.

B1: Cu-GGHLPET (SEQ ID NO: 102) (peptide)
peptide: GGHLPET
modifications: not checked
In data set [1], B1 registered an activity for catalyst concentration of 1 µM of 0.009.

B2: Cu-… (SEQ ID NO: 105) (peptide)
peptide: GGHGLPETG
modifications: not checked
In the case of B2, in data set [1], the activity for catalyst concentration of 1 µM amounted to 0.012.

B3: Cu-GGHGDeLI(Cha)T (peptide)
peptide: GGHGD[dE]LI[Cha]T
modifications: also: Cu complex
As for B3, in data set [2], the kinact turned out to be 0.042 min⁻¹. Besides, in data set [3], the Ka came out at 33000 M⁻¹.

B4: Cu-GGHLPETG (SEQ ID NO: 103) (peptide)
peptide: GGHLPETG
modifications: not checked
As for B4, the activity for catalyst concentration of 1 µM in data set [1] amounted to 0.017.

B5: Cu-GGHGLPET (SEQ ID NO: 104) (peptide)
peptide: GGHGLPET
modifications: not checked
In turn, B5 returned an activity for catalyst concentration of 1 µM in data set [1] of 0.027.

B6: Recombinant human somatic ACE (sACE-1: Leu30-Leu1261, with C-terminal His tag) (protein)
chain: LDPGLQPGNFSADEAGAQLFAQSYNSSAEQVLFQSVAASWAHDTNITAENARRQEEAALLSQEFAEAWGQKAKELYEPIWQNFTDPQLRRIIGAVRTLGSANLPLAKRQQYNALLSNMSRIYSTAKVCLPNKTATCWSLDPDLTNILASSRSYAMLLFAWEGWHNAAGIPLKPLYEDFTALSNEAYKQDGFTDTGAYWRSWYNSPTFEDDLEHLYQQLEPLYLNLHAFVRRALHRRYGDRYINLRGPIPAHLLGDMWAQSWENIYDMVVPFPDKPNLDVTSTMLQQGWNATHMFRVAEEFFTSLELSPMPPEFWEGSMLEKPADGREVVCHASAWDFYNRKDFRIKQCTRVTMDQLSTVHHEMGHIQYYLQYKDLPVSLRRGANPGFHEAIGDVLALSVSTPEHLHKIGLLDRVTNDTESDINYLLKMALEKIAFLPFGYLVDQWRWGVFSGRTPPSRYNFDWWYLRTKYQGICPPVTRNETHFDAGAKFHVPNVTPYIRYFVSFVLQFQFHEALCKEAGYEGPLHQCDIYRSTKAGAKLRKVLQAGSSRPWQEVLKDMVGLDALDAQPLLKYFQPVTQWLQEQNQQNGEVLGWPEYQWHPPLPDNYPEGIDLVTDEAEASKFVEEYDRTSQVVWNEYAEANWNYNTNITTETSKILLQKNMQIANHTLKYGTQARKFDVNQLQNTTIKRIIKKVQDLERAALPAQELEEYNKILLDMETTYSVATVCHPNGSCLQLEPDLTNVMATSRKYEDLLWAWEGWRDKAGRAILQFYPKYVELINQAARLNGYVDAGDSWRSMYETPSLEQDLERLFQELQPLYLNLHAYVRRALHRHYGAQHINLEGPIPAHLLGNMWAQTWSNIYDLVVPFPSAPSMDTTEAMLKQGWTPRRMFKEADDFFTSLGLLPVPPEFWNKSMLEKPTDGREVVCHASAWDFYNGKDFRIKQCTTVNLEDLVVAHHEMGHIQYFMQYKDLPVALREGANPGFHEAIGDVLALSVSTPKHLHSLNLLSSEGGSDEHDINFLMKMALDKIAFIPFSYLVDQWRWRVFDGSITKENYNQEWWSLRLKYQGLCPPVPRTQGDFDPGAKFHIPSSVPYIRYFVSFIIQFQFHEALCQAAGHTGPLHKCDIYQSKEAGQRLATAMKLGFSRPWPEAMQLITGQPNMSASAMLSYFKPLLDWLRTENELHGEKLGWPQYNWTPNSARSEGPLPDSGRVSFLGLDLDAQQARVGQWL
As for B6, the second order rate constant for cleavage of full length sACE-1 (SDS-PAGE), ascorbate + H2O2 in data set [Cu-GGH]^1- is below 50 M⁻¹ s⁻¹; with Cu-GGH-lisinopril, 1170 M⁻¹ s⁻¹; in the data set with Co-GGH-lisinopril, below 1170 M⁻¹ s⁻¹. In addition, in the data set with Cu-GGH-lisinopril, the second order rate constant for cleavage of full length sACE-1 (SDS-PAGE), H2O2 turned out to be 250 M⁻¹ s⁻¹. For the same molecule, the second order rate constant for cleavage of full length sACE-1 (SDS-PAGE), ascorbate was below 100 M⁻¹ s⁻¹ with Cu-GGH-lisinopril and below 1000 M⁻¹ s⁻¹ with Ni-GGH-lisinopril.

B7: Cu-GGHGDeLI(Cha)C-CO2^- (peptide)
peptide: GGHGD[dE]LI[Cha]C-OH
modifications: also: Cu complex
Consider B7, for which, in data set [2], the inactivation rate constant (kinact) turned out to be 0.0014 min⁻¹ and the rate constant for inactivation kinact, in the presence of ascorbate/O2 was below 0.083 h⁻¹. Further, the Ka in data set [3] was found to be 2e+06 M⁻¹. Moreover, the Ki in data set [4] was 500 nM.
